Laboratory results as given in paper PMC10338342, “Cooperation between bHLH transcription factors and histones for DNA access” (Nature, 2023).

B1: BMAL1 bHLH PAS-AB (residues 62-441), chain of the CLOCK-BMAL1 heterodimer (domain or fragment)
chain: not shown
notes: BMAL1, mouse, bHLH PAS-AB, residues 62-441; Always present as part of m1; made a molecule of its own for the contacts that the structures and cross-links assign to BMAL1

Legend:
[1] = target: histone H3.1 (human), in the nucleosome (human, UniProt P68431 1-136); assay: cross-linking; XL-MS with DSSO, TF and nucleosome mixed 1.5:1; CLOCK-BMAL1 with NCP SHL−6.2; conditions: both partners purified
[2] = target: T1, histone H4 (human), in the nucleosome (human, UniProt P62805 1-103); assay: cryo-EM structure; CLOCK-BMAL1 on a W601-variant nucleosome with a histone-facing E-box at SHL−6.2 (1:3 NCP:TF), GraFix cross-linked; 3.8 Å overall; PAS domains placed by Rosetta local docking with density scoring and one cross-link; conditions: both partners purified
T1 construct: Always part of m4; source: in the reconstituted nucleosome

[3] = target: T1, histone H4 (human), in the nucleosome; assay: cryo-EM structure; CLOCK-BMAL1 on the endogenous Por enhancer nucleosome with tandem E-boxes 7 bp apart (1:3), GraFix cross-linked; 3.8 Å overall; conditions: both partners purified
[4] = target: B1; assay: cryo-EM structure; CLOCK-BMAL1 on a W601-variant nucleosome with a solvent-exposed E-box at SHL+5.8 (1:1.5 NCP:TF), GraFix glutaraldehyde cross-linked; 3.6 Å overall, PAS domains 9-11 Å; conditions: both partners purified
[5] = target: the molecule itself; assay: cryo-EM structure; CLOCK-BMAL1 on the endogenous Por enhancer nucleosome with tandem E-boxes 7 bp apart (1:3), GraFix cross-linked; 3.8 Å overall
[6] = target: T2, mouse BMAL1 bHLH (residues 73–135) with an additional C-terminal tryptophan (mouse, UniProt Q9WTL8 73-135); assay: SEC; CLOCK bHLH and BMAL1 bHLH purified separately, mixed at equimolar ratios, about one hour on ice, S75 10/300 GL column; conditions: both partners purified
T2 construct: BMAL1, mouse, bHLH, residues 73-135; additional tryptophan engineered at the C terminus to allow for UV detection; source: E. coli vector (pET28-derived), expressed and purified separately (HisTrap HP)

B1
binding result [1]: binds | binding result [2]: binds

B2: CLOCK bHLH PAS-AB (residues 26-395), chain of the CLOCK-BMAL1 heterodimer (domain or fragment, mouse, UniProt O08785 26-395, looked up)
chain: VEEDDKDKAKRVSRNKSEKKRRDQFNVLIKELGSMLPGNARKMDKSTVLQKSIDFLRKHKETTAQSDASEIRQDWKPTFLSNEEFTQLMLEALDGFFLAIMTDGSIIYVSESVTSLLEHLPSDLVDQSIFNFIPEGEHSEVYKILSTHLLESDSLTPEYLKSKNQLEFCCHMLRGTIDPKEPSTYEYVRFIGNFKSLTSVSTSTHNGFEGTIQRTHRPSYEDRVCFVATVRLATPQFIKEMCTVEEPNEEFTSRHSLEWKFLFLDHRAPPIIGYLPFEVLGTSGYDYYHVDDLENLAKCHEHLMQYGKGKSCYYRFLTKGQQWIWLQTHYYITYHQWNSRPEFIVCTHTVVSYAEVRAERRRELGIEESL
notes: CLOCK, mouse, bHLH PAS-AB, residues 26-395; Always present as part of m1; made a molecule of its own for the contacts that the structures and cross-links assign to CLOCK
binding result [3]: binds | binding result [4]: binds

B3: CLOCK-BMAL1 bHLH PAS-AB heterodimer (complex)
chain 1: VEEDDKDKAKRVSRNKSEKKRRDQFNVLIKELGSMLPGNARKMDKSTVLQKSIDFLRKHKETTAQSDASEIRQDWKPTFLSNEEFTQLMLEALDGFFLAIMTDGSIIYVSESVTSLLEHLPSDLVDQSIFNFIPEGEHSEVYKILSTHLLESDSLTPEYLKSKNQLEFCCHMLRGTIDPKEPSTYEYVRFIGNFKSLTSVSTSTHNGFEGTIQRTHRPSYEDRVCFVATVRLATPQFIKEMCTVEEPNEEFTSRHSLEWKFLFLDHRAPPIIGYLPFEVLGTSGYDYYHVDDLENLAKCHEHLMQYGKGKSCYYRFLTKGQQWIWLQTHYYITYHQWNSRPEFIVCTHTVVSYAEVRAERRRELGIEESL
chain 2: not shown
notes: CLOCK, mouse, bHLH PAS-AB, residues 26-395; BMAL1, mouse, bHLH PAS-AB, residues 62-441; also called CB; CLOCK-BMAL1 WT; source: insect cells (Spodoptera frugiperda or Hi5), purified (Ni-NTA, TEV cleavage, heparin, Superdex 200); copies: 1 + 1
binding result [5]: binds

B4: mouse CLOCK bHLH (residues 29–89) with an additional C-terminal tryptophan (domain or fragment)
chain: DDKDKAKRVSRNKSEKKRRDQFNVLIKELGSMLPGNARKMDKSTVLQKSIDFLRKHKETTAW
notes: CLOCK, mouse, bHLH, residues 29-89; additional tryptophan engineered at the C terminus to allow for UV detection; source: E. coli vector (pET28-derived), expressed and purified separately (HisTrap HP)
binding result [6]: binds
